Measured values as given in patent publication US20050069542A1 (Human Genome Sciences, published 2005).

T1: flag-tagged soluble TL3 (amino acids 105-251 of SEQ ID NO:234) (Homo sapiens (Human), UniProt O75888 105-250)
T1 construct: Heterologous flag-tagged control protein, immobilized in the ELISA; also called flagged tagged TL-3; not shown: Flag tag
T1 sequence: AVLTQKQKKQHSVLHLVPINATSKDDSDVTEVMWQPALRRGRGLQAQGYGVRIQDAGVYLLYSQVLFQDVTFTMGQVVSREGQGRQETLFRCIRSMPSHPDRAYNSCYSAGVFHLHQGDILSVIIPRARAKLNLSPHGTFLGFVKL


Target: T1, flag-tagged soluble TL3 (amino acids …)
Assay: phage ELISA on immobilized flag-tagged soluble TL3
Outline: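 Phage displaying scFvs selected against flag-tagged GMAD were screened by ELISA against immobilized flag-tagged soluble TL3 (residues 105-251) as a heterologous flag-tagged counter-target, to check that binding is GMAD-specific.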

Row | Binder | binding result
1 | GMCC101 (scFv) scFv: EVQLVQSGAEVKKPGSSVKVSCKASGGTFRTYAITWVRQAPGQGLEWMGGIIPISATANYAQKFQGRVTITADESMSTAYMELSSLRSEDTAVYYCARDREPHYFDNWGRGTMVTVSSGGGGSGGGGSGGGGSALPVLTQPPSVSEAPRQGVTISCSGSSSNIGNNAVSWYQQLPGQAPKLLIYYDDLLPSGVSDRFSASKSGTSASLAISGLQSEDEADYYCAAWDDSLNGVIFGGGTQLTVLS | no binding
2 | GMCC105 (scFv) scFv: QVQLVQSGGGVVQPGRSLRLSCTASGFNLGSHGMHWVRQAPGKGLEWVAVIGFDGTTKYYVDSVKGRFTISRDNSRNTLSLQMNSLRAEDTAVYYCVREDYYYDSSGYYFDYWGRGTLVTVSSGGGGSGGGGSGGGGSALSSELTQDPFVSVALGQTVRIACRGDSLRDSYASWYQQKPGQAPRLLVYGNNLRPSGIPGRFSGSSSGDTASLSITETQAGDEADYYCSSRGNSTSRLYVFGTGTKLTVLG | no binding
3 | GMCC106 (scFv) scFv: QVQLQESGPGLVKPSGTLSLTCAVSVGSINESNWWSWVRQSPGKGLEWIGEIYPTGTTNYNPSLESRVTISVDKSRNLFSLKLKSVTAADSAMYFCARDRWAGGFDLWGRGTMVTVSSGGGGSGGGGSGGGGSAQSVLTQPPSASGTPGQRVTISCSGSSSNIGSNSVYWYQQLPGTAPKLLIYRNNQRPSGVPDRFSASKSGTSASLAISGLRSEDEADYYCAAWDDSLSGLVFGGGTKLTVLG | no binding
4 | GMBC610 (scFv) scFv: QVTLKESGAEVKKPGASVKVSCKTSGFTFGAYYIHWVRQVPGQGLEWMGWIDPNNGGTNYAQKFQGRVTMTRDMSTTTTYMEVSGLHSDDTAVYYCARARVATILEYWGRGTLVTVSSGGGGSGGGGSGGGGSPELTQDPAVSVALGQTVRITCQGDSLRSYYASWYQQKPGQAPVLVIYGKNNRPSGIPDRFSGSSSGNTASLTITGAQAEDEADYYCNSRDSSGNHVVFGGGTKLTVLG | no binding
5 | GMCC107 (scFv) scFv: QVQLVQSGAEVKKPGASVKVSCRTSGYTFTDHSMHWVRQAPGQRFEWMGWIGADSGSTQYSRNFQGRLTIGRDTSASTVYMELTSLRSEDTAVYYCARVGGGQGWYSGMDVWGRGTLVTVSSGGGGSGGGGSGGGGSAQAVLTQPSSVSGAPGQRVTISCTGSSSNIGASYDVHWYQQLPGTAPKLLIYNNNNRPSGVPDRFSGSRSGTSASLAITGLQAEDEADYYCHSYDSNLSGDVFGSGTKLTVLG | no binding
6 | GMCC108 (scFv) scFv: EVQLVQSGAEVKEPGASVTVSCKASGYTFISYHMHWVRQAPGQGLEWMGIINPSGGDTTYAQKFQGRVTMTRDTSTSTVYMELRSLRFEDTARYYCARDLKFYDFRSGKYQDYGMDVWGQGTLVTVSSGGGGSGGGGSGGGGSAQSVLTQPPSLSVAPGQTASITCGGNDIGTKSVHWYQLKPGQAPVLVVYDNRDRPSGIPERFSGSNSGNTATLTISRVEGGDEADYYCQVWDSSIDHSEYVFGTGTKLTVLG | no binding
7 | GMCC110 (scFv) scFv: QVQLQESGPGLVKPSQTLSLTCTVSGASISSGGYRWIWIRQHPGQGLEWIGDIHYSGSTQYNPSLKSRVALTLDRSKNQFSLQLSSVTAADTAVYYCARDPRGHTYGYGYYFDYWGKGTLVTVSSGGGGSGGGGSGGGGSALSSELTQDPDVSVALGQTVTITCQGDRLRRYYASWYQQKPGQAPVLVIFRKNNRPSGIPDRFSGSSSGDTASLTITGAQAEDEADYYCNSRDTSGTLSFGGGTQLTVLS | no binding
8 | GMCC112 (scFv) scFv: QVQLVQSGGGLVQPGGSLRLSCAASGFSFSTYAMSWVRQAPGKGLEWVSGVSDGGDTFYADSVRGRFTLSRDNAKNTLFLQMNSLTAEDTATYYCAKEIARIGVPNFDHWGQGTLVTVSSGGGGSGGGGSGGGGSALETTLTQSPGTLSLSPGDRATLSCRASQSIRNNDVAWYQQKPGQAPRLLIYSASRRATDIPDRFSGSASGTDFTLTISRLEPEDFAMYYCQQYGGSASFGQGTRLEIKR | no binding
9 | GMCC114 (scFv) scFv: EVQLVESGPEVKKPGSSVKVSCKASGAAAFSSYAISWVRQAPGRGLEWMGGIIPISDTPKYAHKFQGRVTITADESTTTVFMEVSGLRSDDTAVYYCATTTRYGSGTYDYMDVWGQGTMVTVSSGGGGSGGGGSGGGGSALSSELTQDPAVSVALGQTVRITCQGDSLRSYYASWYQQKPGQAPVLVFYGKNKRPSGIPDRFSGSTSGNTASLSITGALADDEADYYCHSRDTSGAQILFGGGTKLTVLG | no binding
10 | GMCC118 (scFv) scFv: EVQLVQSGGGLVKPGGSLRLSCTASGFSFTNAWMSWVRQAPGKGLEWVGRIKSRNDGGATDYAAPVKGRFTISRDDSKNTLYLQMNSLKTDDTAVYYCTTDNFPLRFLEWLSHPDYWGQGTMVTVSSGGGGSGGGGSGGGGSAQAVLTQPSSVSVSPGQTVTITCSGEKLDNKYISWYQQRPGRSPILVIYQDRKRPSGIPERFSGSNSGNTATLTITGSQPLDEADYYCQAWDSSTAWEFGGGTKLTVLG | no binding
11 | GMCC119 (scFv) scFv: EVQLVQSGPEVKKPGASVKVSCKASNYTFTTYDISWVRQAPGQGLEWMGWISTYSGNTKYAQKFQGRVTMTRDTSTSAAYMELRNLRSDDTAVYFCARDIRVWRGSGSVHYFDPWGRGTTVTVSSGGGGSGGGGSGGGGSAQSALTQPRSVSGSPGQSVTISCTGTSNDVGGYNFVSWYQQHPGKAPKLMVYNVSKRPSGVPDRFSGSKSGNTASLTISGLQAEDEADYYCSSYAHSYTLVFGGGTKVTVLG | no binding
12 | GMCC124 (scFv) scFv: QVTLKESGAEVKKPGASVKVSCKASGYTFTDNALHWVRQAPGQRPEWMAWINTANGNTRYSQKFQGRLTITRDTSASTAFMDLSSLRSEDTAVYYCARQKAYKNYYYYYGMDVWGQGTLVTVSSGGGGSGGGGSGGGGSAQSVVTQPPSVSAAPGQKVTISCSGSSSNIGNNYVSWYQQLPGTAPKLLIYENNKRPSGIPDRFSGSQSGTSATLGISGLQTGDEADYYCGTWDSSLRAGVFGGGTKLTVLG | no binding
13 | GMCC125 (scFv) scFv: EVQLVQSGGGLVKPGGSLRLSCAASGFSFSDYSMHWIRQAPGKGLEWLSHIGTSTSYTNYADSVKGRFTISRDNAKNSFYLQMNSLRVDDTAVYFCARGFGGLRGYFDYWGQGTLVTVSSGGGGSGGGGSGGGGSALSSELTQDPAVSVALGQTVKITCQGDRLRRFYASWYQQKPGQAPLLLIYGKNSRPSGIPDRFSGSTSGATASLTITGAQAEDEADYYCNSRDSSGSLHSVFGTGTKVTVLG | no binding
14 | GMBC612 (scFv) scFv: EVQLVESGGGVVQPGGSLRLSCAASGFSFSSYGMQWVRQAPGKGLEWVAFIRYDGSIKYYADSVKGRFTVSRDNSKNTLYLQMNSLRAEDTAVYYCARGYRIVDYWGQGTLVTVSSGGGGSGGGGSGGGGSDIQMTQSPSTLSPSIGDRVTITCRASEGIYHWLAWYQQKPGKAPKLLIYKASSLASGAPSRFSGSGSGTDFTLTISSLQPDDFATYYCQQYSNYPLTFGGGTKLEIKR | no binding
15 | GMCC126 (scFv) scFv: QVQLQESGPGLVKPSQTLSLSCAVSGFSVTSGHYWGWIRQSPGKGLEWIGNIYHTGSTRYNPSLESRVSMSVDTSKNQFSLRLTSVTAADTAIYYCARVGRGQHLVRGDFDYWGRGTLVTVSSGGGGSGGGGSGGGGSAQSVLTQPPSISVSPGQTASITCSGDELGHKYASWYQQKPGQSPVVVVYQDNKRPSGIPERFSGSSSGNTATLTISGTQAVDEADYFCQAWDSSAVVFGGGTKLTVLG | no binding
16 | GMCC127 (scFv) scFv: QVQLVQSGGGVVRPGGSLRLSCAASGFTFDDYGMSWVRQAPGKGLEWVSGINWNGGSTGYADSVKGRFTISRDNAKNSLYLQMNSLRAEDTAVYYCARRRYALDYWGRGTLVTVSSGGGGSGGGGSGGGGSALSSELTQDPAVSVALGQAVRITCQGDSLRTNYASWYQQRPGQAPVLVIRGNNNRPSGIPDRFSGSNSGDTVSLTITGAQAEDEADYYCNSRDTSGYHYVFGTGTKLTVLG | no binding
17 | GMCC129 (scFv) scFv: EVQLVETGGGLAQPGGSLRLSCEASGFTFNNYAMSWVRQAPGKGLEWVSGISISGYSTFYTDSVQGRFTISRDNSKNTLYLQMNSLGVDDTAVYYCAKRRGEGGDFDYWGRGTMVTVSSGGGGSGGGGSGGGGSALSSELTQDPAVSVALGQTVRITCQGDSLRGYYASWYQQKAGQAPVLVIYGKNNRPSGIPDRFSGSSSGNTASLTITGAQAEDEADYYCYSRDRSGNHLGMFGGGTKVTVLG | no binding
18 | GMCC131 (scFv) scFv: QVQLQESGPGLVKPSETLSLTCSVSGGSIRSHYWSWMRQPPGKGLEWIGYVYYTGSTNYNPSLKSRVTMSVDTSKNQFSLNLSSVTAADTAIYYCARFPYSSGSNPLDYWGRGTLVTVSSGGGGSGGGGSGGGGSAQSVLTQPPSVSAAPGQRVTISCTGSSSNIGARYDVHWYQHLPGTAPKLLIYGDSNRPSGVPDRFSGSKSGTSASLAITGLQPEDEADYYCQSYDSSLSGVVFGGGTKVTVLG | no binding
19 | GMCC138 (scFv) scFv: EVQLVETGPGLVKPSQTLSLTCTVSGGSISSGGYYWSWIRQVPGKGLEWIGYNFYNGSTYFNPSLKSRATISIDTTKNQFSLKLSSVTAADTAVYYCARGNGYRYGRWFDPWGRGTLVTVSSGGGGSGGGGSGGGGSALSYELTQPPSVSVSPGQTARITCSGDALPKQYAYWYQQKPGQAPVLVISKDSERPSGIPERFSGSSSGTTVTLTISGVQAEDEADYYCQSADSSGTYWVFGGGTKVTVLG | no binding
